The results in this text go back to the nanobody polyreactivity screen of Harvey et al. (2022).

The data set is described as follows: yeast display, Sf9 membrane polyspecificity reagent, FACS + sequencing; frameworks hold sequencing errors. In outline: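 After 36–48 hours of galactose induction, yeast (Saccharomyces cerevisiae BJ5465) displaying a synthetic nanobody library were stained at 4 °C for 1 hour with 10% biotinylated, detergent-solubilized Sf9 membrane reagent. Streptavidin microbeads enriched the stained cells before FACS sorting into low and high (top ~1%) gates on anti-HA and streptavidin fluorescence. Each clone's polyreactivity label reflects its gate of origin.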
As for “QVQLVESGVGLVQAGGSLRLSCAASGSTFVYMGWYRQAPGKEREFVAAITWSGGSTYYADSVKGRFTISRDNAKNTVYLQMNSLKPEDTAVYYCNAVSVFPGWARYYYWGQGTQVTVSS”, the “polyreactivity (PSR sort gate)” value is recorded as “low polyreactivity”.
Consider “QVQLHESGGGLVQAGGSLRLSCAASGTISYAGPMGWSRQAPGKEREFVAGIGVGSNTNYADSVKGRYTIIRANAKNTVALQMTCLKPEDTAVYYCAVGGYAPLGRPYWGQGTHVTVSS”, for which the “polyreactivity (PSR sort gate)” value is on record as “low polyreactivity”.
In the case of “QVQLVESGGGLVQAGGSLRLSCAASGITFWVYVMGWYRQAPGKEREFVADISSGAGTTYYADSVKGRFTISRDNAKNTVYLQMNSLKPEDTAVYYCAARRWWPQWYDYWGQGTQVTVSS”, the “polyreactivity (PSR sort gate)” value is given as “high polyreactivity”.
Turning to “QVQLVESGGGLVQAGGSLRLSCAASGRIFYFNSMGWYRQAPGKEREFVAAISGSGGDTYYADSVKGRFTISRDIAKNTVYLQMNSLKPEDTAVYYCAAEVYTWGQGTQVTVSS”, the “polyreactivity (PSR sort gate)” value is on record as “low polyreactivity”.
As to “QVQLVESGGGLVQAGGSLRLTCAASALTFVWYAMGWYRQATGKERELVAAIRGGGSTYYADSVKGRFTISRDNAKNTVYLQMNRLIPEDTAVYYCAAQRSPYYTFYYWGQGTQVTVSS”, the “polyreactivity (PSR sort gate)” value is listed as “high polyreactivity”.
The value for “QVQLVESGGGLVQAGGSLRLSCAASGRTFRSNAMGWDRQAPGKEREFVAAISSGGSTKYADSVKGRFTISRDNAKNTVYLQMNSLKPEDTAVYYCAAVSHSRYWGQGTQVTVSS” was “high polyreactivity”; that for “QVQLVESGGGLVQAGGSLRLSCAASGFTFRYYVMGWYRQSPGKERELVASISRAGSTTNYADSVKGRFTISRDNAKNTVYLQMNSLNPEDTAVYYCNVVITPGYSYDISRGEGYWGQGTQVTVSS” was “high polyreactivity”; that for “QVQLVESGGGLVQAGGSLRLSCAASGSTFTSYAMGWYRQAPGKERELVAAISKSGGSTYYADSVKGRFTISRDNAKNTVSLQMNSLKPEDSAVFYCAARYIVRSYSTSRFDYWGQGTQVTVSS” was “low polyreactivity”.
The value for “QVQLVESGGGLVQAGGSLRLSCAASGFIFVWYAMGWYRQAPGKERELVAAISWSGGNTYYADSVKGRFTISRDNAKNTVYLQMNSLKPEDTAVYYCNVVYFDGNPEDYDYWGQGTQVTVSS” was “high polyreactivity”; that for “QVQLVESVGGLVQAGGSLRLSCPTSGRIFTYYAMGWYRQAPGKERELVAAINSRGGSTYYADSVKGRFTISRDNAKNTVYLQMNSLKPEDSAVYYCAAVGLYSRYAYWGQGTQVSVSS” was “high polyreactivity”.
Consider “QVQLVESGGGLVQAGGSLRLSCAASGSIFYDYVMGWYRQAPGKERELVAAISVSGGRTYYADSVKGRFTISRDNAKNTVYLQMNSLKPEDTAVDYCAAKYPAGGRNYDYWGQGTQVTVSS”, for which the “polyreactivity (PSR sort gate)” value is recorded as “high polyreactivity”.
Regarding “QVQLVESGGGLVQAGGSLRLSCAASGLNFTYNAMGWSRQAPGKESELVAAITRSGGSTYYADSVKGRFTISRDNAKNTVYLQMNSLKPEDTAVYYCAKDDSAYSKYGYWGQGTQVTVSS”, the “polyreactivity (PSR sort gate)” value is “low polyreactivity”.
For the sequence “QVQLVESGGGLVQAGGSLRLSCAASGSTFPINTMGWYRQAPGKERELVAAITHSGGRTYYADSVKGRFTISRVNAKNTVYLQMNSLKPEDTAVYYCNAVRYYAVRVSDGDYDYWGQGTQVTVSS”, the “polyreactivity (PSR sort gate)” value is on record as “low polyreactivity”.
On to “QVQLVESGGGLVQAGGSLRLSCAASGRTLVYYAMGWYRQAPGKERELVAAITWRGGRTYYADSVKGRFTISRDNAKNTVYLQMNSLKPEDTAVYYCAKDGGHTGDYWGQGTQVTVSS”, for which the “polyreactivity (PSR sort gate)” value is given as “low polyreactivity”.
As to “QVQLVESGGGLVQAGGSLRLSCAASGRIFKVYAMGWYRQAPGKERDLVAVISRGGSTYYADSVKGRFTISRDNAKNTVYLQMKSLKPEDTAVYYCAARLTYTGGQGAYDYWGQGTQVTVSS”, the “polyreactivity (PSR sort gate)” value is “high polyreactivity”.
With “QVQLVESGGGLVQAGGSLRLTCAASGSTFSDYAMGWNRQAHGKERELVAGITGGGGTYYADSVKGRFTISRDNAKNTVYLQMNSLKPEDTALYYCAAGRRHGLGYWGQGTLVTVSS”, the “polyreactivity (PSR sort gate)” value is on record as “low polyreactivity”.
Regarding “QVQLVESGGGLVQAGGSLRLSCAASGSTFGSNAMGWYRQAPGKERELVAAISSSGSTYYADSVKGRFTISRDNAKNTVYLQMNSLKPEDTAVYYSAAPGSPYGYWGQGTQVTVSW”, the “polyreactivity (PSR sort gate)” value is recorded as “high polyreactivity”.
With “QVQLVESGGGLVQAGGSLRLSCAASGLTFDYYAMGWYRQAPGKERELVAAITRRGGGTYYADSVKGRFTISRDNAKNTVYLQMNSLKPEDTAVYYCNADRRSWSALHRYDYWGQGTQVTVSS”, the “polyreactivity (PSR sort gate)” value is reported as “high polyreactivity”.
Regarding “QVQLVESGGGLVQAGGSLRLSCAASGPTFLYNAMGWYRQAPGKERELVAAISRSAVSTYYADSVKGRFTISRDNAKNTVYLQINSLKPDDTAVYYCSADYRGRYATYRSYASVLYDYWGQGTQVTVSW”, the “polyreactivity (PSR sort gate)” value was “low polyreactivity”.
“QFQLVESGGGLVQAGGSLRLSCAASGRSFNRNAMGWYRQAPGKERELVAAISRSGTRTYYADSVKGRFTISRDNAKNTVYLQMNSLKPEDTAVYYCNALRVDGGDYWGQGTQVTVSS”: the “polyreactivity (PSR sort gate)” value is on record as “high polyreactivity”.
On to “QVQLVESGGGLVKAGGSLRLSCAASGFTFWRNTMGWYRQAPGKERELVAAIDRSGSSTYYADSVKGRFTISRDNATNNVYFQMNSLKPEDTAVYYCAADHTYFTAYGDYWGQGTQVTVSS”, for which the “polyreactivity (PSR sort gate)” value is “low polyreactivity”.
Turning to “QVQLVESGGGLVQAGGSLRLICSASGSIIEHYAMGWYRQAPGKERELVAAISWCGASTYYADSVKGRFTISRDNAKNTVYLQWYSLKPEDTAVYYCAAVFYGGGKRYYYWGQGTQVTVSS”, the “polyreactivity (PSR sort gate)” value was “high polyreactivity”.
In the case of “QVQLVESGGGLVQAGGSLRLSCAASGSTFDINAMGWYRQAPGKERELVAAITSGGGTNYADSVKGRFTISRDNAKNTVYLQMNSMKPEDTAVYYCAARVRGKYDYWGQGTQVTVSS”, the “polyreactivity (PSR sort gate)” value is on record as “high polyreactivity”.
Regarding “QVQLVESGAGLVQAGGSLRLSCAASGRIFTKYAMGLYRQAPGKERELVAAISGSGGNTYYADSLKGRFTISRDNAKNTVYLQMNSLKPEDTAVYYCNRAKNAYLMDFWGQVTQVTVSS”, the “polyreactivity (PSR sort gate)” value is “high polyreactivity”.
As for “QVQLVESGGGLVQAGGSLRLSCAASGSIFYSYAMGWYRQAPGKERELVAVITRGGSTNYADSVKGRFTISRDNAKNTVYLQLNSLKPEDTAVYYCNKDRYGKVFRYPPYYRSSPYDYWGQGTQVTVSS”, the entry is “high polyreactivity”; as for “QVQLVETGAGLVQAGGSLRLSCGASGLTFARYAMGWYRQAPGKERELVAGIDSTGGTTYYADSVKGRFTISRDNAKNTVYLQMNSLKPVDTAVYYCYYWGLGTQVTVSS”, “low polyreactivity”; as for “QVQLVESGGGLVQAGGSLRLSCAASGSIYVQNAMGWYRQAPGKERELVAAITFSGVDTYYADSVKGRFTISRDNAKNTVYFQMNSLKPEDTAVYYCNADRGYNLVRRSQAVVEMDYWGQGTQVTVSS”, “low polyreactivity”.
For the sequence “QVQLLESGGGLVQAGGSLRLSCAASGRIFRAYAMGWYRQAPGKERELVAAISWRYGSTYYADSVKGRFTISRDNAKNTVYLQMNSVKPEDTAVYYCAAEYDWPGYDYWGQGTQVTVSS”, the “polyreactivity (PSR sort gate)” value is “high polyreactivity”.
In the case of “QVQLVESGGGLVQAGGSLRLSCAASGRIFGGYAMGWYRQAPGKERELVAVISRGGSITDYADSVKGRFTISRDNAKNTVYLQMNSLKPEDTAVYYCAARICGGSYWGQGTQVTVSS”, the “polyreactivity (PSR sort gate)” value was “high polyreactivity”.
With “QVQIVESGGVLVQAGGSLRLRCAASGSTFNRYAMGWYRQAPGKERELVASITTSDSTNYADSVKGRFTISRDNAQNTVYLQMNRLKPEDTALYYCNAEVRGVWYTYDYWGQGTQVTVSS”, the “polyreactivity (PSR sort gate)” value is “low polyreactivity”.
Consider “QVQLVESGGGLVQARGSLRLSCAASGSTFPYYTMGWYRQAHWKERELVAAITTRGGGTYYADSVKGRFTISRDNAKNTVYLKMNSLKPEDTAVYYCAAKTIYDTRGIRHYYWGKGTQVTVSS”, for which the “polyreactivity (PSR sort gate)” value was “high polyreactivity”.
For “QVQLEESGGGLVQAGGSLRLSCAASGRTFLEYVMGWYRQAPGKERELVAVISWSTGSTYADSVKGRFTISRDNAKNTVYLQMNSLKPEDTAVYYCARRVQSLGNVVIYNYWGQGTQVTVSS”, the “polyreactivity (PSR sort gate)” value is reported as “low polyreactivity”.
As for “QYQLVESGGGLVQAGGSLRLSCAASGSTFRYYAMGWYRQAPGKETELVAAISTRGGTTYYADSVKGRFTISRDNAKNTVYLQMNSLKPEDTAVYYCAAEALVPLIYYYWGQGTQVTVSS”, the entry is “low polyreactivity”.
For the sequence “QVQLVESGGGLVQAGGSLRLSCAASGSTFAGYAMGWYRQAPGKERELVAAISWNGGSTYYADSVKGRFTISRDNAKNTVYLQMNSLKPEDTAVYYCAKARYYSWKGKGDYWGQGTQVTVSS”, the “polyreactivity (PSR sort gate)” value is “high polyreactivity”.
As for “QFQLVESGGGLFQAGGSLRLSSAASGITFRYYAMGWYRQAPGKERELVAAITRSGSSTFYADSVKGRFTISLDNAKNTVYLQMNSLKPEDTAVYYCAAESVRAVFPDRYKYWGQGTQVTVSS”, the entry is “high polyreactivity”; as for “QVQIVESGAGLVQAGGSLRISCAASGRIFRYYAMGWYRQAPGKERELVAAITVSGGSKYYADSVKGRFTISRDNAKNTVYLQMNSLKPEDTAVYYCAKALRSYLFIHFDYWVQGTQVTVSS”, “low polyreactivity”.
“QVQLVESGGGLVQAGGSLRLSCAASGSTFSGYAKGWYRQAPGKERELVAAINWNGGRTYYADSVKGRFTISRDNAKNTVYLQMNSLKPEDTAVYYCNKQSPRGRSAVYKYDYWGQGTQVTVSS”: the “polyreactivity (PSR sort gate)” value is on record as “high polyreactivity”.
As for “QVQLVESGGGLVQAGGSLRLSCAASGSTFKTYAMGWYRQAPGKEREFVASISGSGGSTRYADSVKGRFTISRDNAKNTVYLQMNSLKPEDTAVYYCAARLQKPTNGKGVYYWGQGTQVTVSS”, the entry is “high polyreactivity”; as for “QVQLVESGGGLVQAGGSLRLSCAASGSNFLYYAIGWYRQAPGKERELVDGIRRGGRTNYADSVKGRFTISRDNAKNTVYLQMNSLKPEDTAVYYCAKGGYWGQGTQVTVSS”, “high polyreactivity”.
Turning to “QVQLVESGGGLVQAGGSLRLSCAASGFIFNHYAMGWYRQAPGKEREFVAAISWSGGSTYYADSVKGRFTISRDNAKNTVYLQMNSLKPEDTAVYYCAASYNGLWHGDYDYWGQGTQVTVSS”, the “polyreactivity (PSR sort gate)” value is given as “low polyreactivity”.
The value for “QVQIVESGGGLVQAGGSLRLSCAASGNIFDRYAMGWYRQAPGKERELVAGITWSGGSTYYADSVKGRFTISRDNAKNTVYLQMNSLKPDDTAVYYCGQANYYWGLGTQVTVSS” was “low polyreactivity”.
